Measured values from the nanobody polyreactivity screen of Harvey et al. (2022).

Experiment: yeast display, Sf9 membrane polyspecificity reagent, FACS + sequencing; frameworks hold sequencing errors
Outline: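 After 36–48 hours of galactose induction, yeast (Saccharomyces cerevisiae BJ5465) displaying a synthetic nanobody library were stained at 4 °C for 1 hour with 10% biotinylated, detergent-solubilized Sf9 membrane reagent. Streptavidin microbeads enriched the stained cells before FACS sorting into low and high (top ~1%) gates on anti-HA and streptavidin fluorescence. Each clone's polyreactivity label reflects its gate of origin.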
With “QVQLVDSGGGLVQAGGSLRLTCAASGSIFNYYTMGWSRQAPGKERELVAAISSSGGSTYYADSVKGRFTISRDNAKNTVYLQMNSLKPVDTAVYFCNTYPPAHREYESWGQGTQLTVSS” the “polyreactivity (PSR sort gate)” value was “high polyreactivity”. In the case of “QVQLVDSGGGLVQAGGSLRLTCAASGSIFPRNVMGWYRHAPGKERELVAAISSRATRTYYADSVKGRFTISRDNAKNTVYLQMNSLKPEDTAVYYCAADRTLYSSGYYYWGQGSQVTVSS”, the “polyreactivity (PSR sort gate)” value is reported as “high polyreactivity”. In the case of “QVQLVDSGGGLVQAGGSLRLTCDASGSTFYVNFMGWYRQAPGKERELDALIDWRGGSTYYADSVKGRFTISRDNAKNTVYLQMNSLKPEDTAVYYCKKDAQFYYKLPYYKERDWGQGTQVTVSS”, the “polyreactivity (PSR sort gate)” value is reported as “low polyreactivity”. For “QVQLVDSGGGLVQAGGSLRLTFAASGRTFRWNVMGWYRQAPGKERELVATISRRSGSTNYADSVKGRFTISRDNAKITVYLQMNSLKPEDTAVYYCAVVIVRALVYAGDYWGQGTQVTVSS”, the “polyreactivity (PSR sort gate)” value was “low polyreactivity”. In the case of “QVQLVDSGGGLVQAGGSLRVSCAASGRIFSGHAMGWYRQAPGKVRELVAAITSGGDDTYYADSVKGRFTISRDNAKNTVYLQMNSLKPEDTAVYYCAARYLGYTYYYWGQGTQVSVSS”, the “polyreactivity (PSR sort gate)” value is reported as “low polyreactivity”. With “QVQLVDSGGGLVQAGGSLSLSCAASGRIFTHYSMGWYRQATGKERELVAGMSQGGGSTYYADSVKGRFTISRDNAKNTVYLQMNSLKPEDTAVYYCAKTYDYVDYDYWGQGTQVTVSS” the “polyreactivity (PSR sort gate)” value was “low polyreactivity”. In the case of “QVQLVDSGGGLVQAGGSLSLSCAASGSTFKHYAMGWYRQAPGKERELVAAISSRGGSTHYADSVKGRFTISRDNAKNTVYLQMNSLKPEDTAVYYCARDTDTLSSRSSDYDYWGQGTQVTVSS”, the “polyreactivity (PSR sort gate)” value is reported as “low polyreactivity”. With “QVQLVDSGGGLVQAGVSLRLSCAASGSTFVFYAMGWYRQAPGKERELVAGISWSGGSTYYADSVKGRFTISRDNAKNTVYLQMNSLKPEDTAVYYCAARYTRYLGSGYYYCGQGTQVTVSS” the “polyreactivity (PSR sort gate)” value was “high polyreactivity”. For “QVQLVDSGGGLVQEGGSLRLSCAASGSIFSTYARGWYRQAPGKEWEVVAAITRGGRTTYADSVKGRFTISRDNAKNTVYLQMNSLKPEDTAVYYCNAVGVYYWWYRLYDYWGQGTQVTLSS”, the “polyreactivity (PSR sort gate)” value was “high polyreactivity”. In the case of “QVQLVDSGGGVVQAGGSLLLSCPASGLIIKVYAMGWYRQAPGKERELVAAITYSGGSTDYADSVKGRFTISRDNAKNTVFLQMISLKPEDTAVYYCNVEKVGHVNSYGYDYWGQGTQVTVSS”, the “polyreactivity (PSR sort gate)” value is reported as “low polyreactivity”. For “QVQLVDSGGGVVQAGGSLRLSCAASGFIFSGYAMGWYRPAPGKERELVAVISRGGGSTSYADSVKGRFTISRDNAKNTVYLQMNSLKPEDTAVYYCAAVYYPLSVDNDYWGQGTQVTVSS”, the “polyreactivity (PSR sort gate)” value was “high polyreactivity”. For “QVQLVDSGGRLEQAGGSLRLSCAASGSIFGWNAMGWYRQAPGKERELVAAINWTGGTTYYADSVKGRITISRDNAKYTVYLQMKSLKPADTAVYYCAARLTYHVAGQITRYYYWGQGTQVTVSS”, the “polyreactivity (PSR sort gate)” value was “low polyreactivity”. For “QVQLVDSGRGLVQAGGSLRLSCAASGGTFARNAMGWYRQAPGKERELVAAIRGGVSTNYADSVKGRFTISSDNAKNTVYLQMNSLKPEDTAVYYCNASPPTLEGYWGQGTQVTVSS”, the “polyreactivity (PSR sort gate)” value was “low polyreactivity”. In the case of “QVQLVDSGRGLVQAGGSLRLSCASSGSTFRDYAMGWYRQAPGKETELVAVITWNGGSTYYADSVKGRFTISRDNAKNTVYLEMNSLKPEDTAVYYCGAVYPRSLSTEYYYWGQGTQVTVSS”, the “polyreactivity (PSR sort gate)” value is reported as “high polyreactivity”. In the case of “QVQLVDSRGGLVQAGGSLRLSCAASGRTLYSNAKGLSRQAPGKERDLVAAISGSGDTTYYADSVKGRFTISRDNAKNTVYLTMKSLKPEDTAVYYCAADHDSYGAGYEYCGQGTQVTVSS”, the “polyreactivity (PSR sort gate)” value is reported as “low polyreactivity”. For “QVQLVDSVGGLVQAGASLRLSCAASGSIFYYYAMGWYREAPGKERELVAAIRYRGGRTYYADSVKGRFTISRDNAKNTVYLQMNSLKPEDTAVYYCNADVIRRGGSRYSSGRDFDYWGQGTQVTVSS”, the “polyreactivity (PSR sort gate)” value was “high polyreactivity”. With “QVQLVDSVGGLVQAGGSLRLSCAASGLTFLGNAMGWYRQATGKEREFVAGIDRSSVSTYADSVKGRFTISRDNAKNTVYLQMNSLKPEDTEVYYCAVVEYGIWVGWVPYATFGMNYWGQGTQVTVSS” the “polyreactivity (PSR sort gate)” value was “high polyreactivity”. With “QVQLVDSVRGLVQAGGSLRLSCAASGSIFNQNAMGWYRQAPGKERELVAVISSGGRTSYADSVKGRFTISRDNAKNTVYLQMNSLKPEDTAVYYCAADYGDRYWDYGYWGQGTQVTVSS” the “polyreactivity (PSR sort gate)” value was “low polyreactivity”. With “QVQLVDTGRGLVQAGGSLRLSCAPSGRTFGYNAMGWYRQAPGKERELVAAINWSGASTYYADSVKWRFTISRDNAKNTVYLQMKSLKPEDTAVYYCAADYSYIYGFDYWGQGTQVTVST” the “polyreactivity (PSR sort gate)” value was “low polyreactivity”. In the case of “QVQLVEAGGGLVHAGGSLRLSCAASGRIFLAYAMGCYRQAPGKEMELVATIRSGGSTTYADSVKGRFTISRDNAKNSVYLQMNSLKTEDTAVYYCARRYQRKKPVFPHSQGAYDYWGQGTQVTVSS”, the “polyreactivity (PSR sort gate)” value is reported as “low polyreactivity”. For “QVQLVEAGGGLVQAGGSLRLSCAASGFTISSNAMGWYRQAPGKERELVAAISFNSTSTYYADSVKGRFTISRDNAKNSVYLQMNSLKPEDTAVYYCSADVPRVQSEPEYDYWGQGTQVTVSS”, the “polyreactivity (PSR sort gate)” value was “low polyreactivity”. In the case of “QVQLVEAGGGLVQAGGSLRLSCAASGGIFLPYAMGWYRQAPGKERELVAGITSVGSTYADSVKGRFTISRDNAKNTVYLQMNSLKPEDTAVYYCNADIYFVEYDYWGQGTQVTVSS”, the “polyreactivity (PSR sort gate)” value is reported as “low polyreactivity”. In the case of “QVQLVEAGGGLVQAGGSLRLSCAASGSIFFIYAMGWYRQAPGKERELVAAITSGDRTYSADSVKGRFTISRDNAKNTVYLQMNSLKPEDTAVYYCNADYYISYWGQGTQVTVSS”, the “polyreactivity (PSR sort gate)” value is reported as “low polyreactivity”. For “QVQLVEAGGGLVQAGGSLRLSCAASGSTFSYAMGWYRQAPGKETELVAAITIGGRTSYADSVKGRFTISRDNAKNTVYLQMNSLKPEDTAVYYCAAEGYYPVYYYVYYGFDYWGQGTQVTVSS”, the “polyreactivity (PSR sort gate)” value was “low polyreactivity”. With “QVQLVEAGGGLVQAGGSLRLSCAASGYIFAYYAMGWYRQAPGKERELVATIRSGGSTNYADSVKGRFTISRDNGKNTVYLQMNSLKPEDTAVYYCARDDATAGDYWGQGTQVTVSS” the “polyreactivity (PSR sort gate)” value was “low polyreactivity”. In the case of “QVQLVEAGGGLVQAGGSLRLSCASSGRIFPFNAMGRYRQAPGKEREFVAAIRLSGTRKYYADSVKGRFTISRDNAKNTVYLQMNSLKPEDTAVYYCAAKYSGHYYNYDYWGQGTQVTVSS”, the “polyreactivity (PSR sort gate)” value is reported as “high polyreactivity”. In the case of “QVQLVEAGGGLVQAGGTLRLSCAASGSNFSENTMGWYRPAPGKKRELVADITSGGSTNYADSVKGRFTISRDNAKNTVYLQMNSMKAEVTAVYYCAADYNGEYDYWGQGSQVTVSS”, the “polyreactivity (PSR sort gate)” value is reported as “low polyreactivity”. For “QVQLVELGGGLVQAGGSLRLSCAASGLTLYYYAMGWYRQEPGKERELVAAINRGGSTYYADSVKGRFTISRDNAKNTVYLQMNSLKPEATAVYYCAVDYGVRDLTYYYWGQGTQVTVSS”, the “polyreactivity (PSR sort gate)” value was “low polyreactivity”. In the case of “QVQLVESAAGLVQAGGSLRLSCAASGFIFWYYAMGWSRQAPGKERELVAAINSSGGSTYYADSVKGRFSISRDNAKNTVYLQMNSLKPEDSAVYYCAARAYQRGNYWGQGTQVTVSS”, the “polyreactivity (PSR sort gate)” value is reported as “high polyreactivity”. In the case of “QVQLVESAAGLVQAGGSLRLSCAASGLNFASYGMGGYRQAPGKERELVAAISSSVGNTYYADSVKGRFTISRDYAKNTVYLQMNSLNPEDTAVYYCAAAKRSGYTGFKYYYWGQGTQVTVSS”, the “polyreactivity (PSR sort gate)” value is reported as “high polyreactivity”. With “QVQLVESAAGLVQAGGSLRLSCAASGSTFAGNAMGWYRQAPGKERELVAAIDSSTGSTYYADSVKGRFTISRDNAKNTVYLQMNSLKPEDTAVYYCNKTSFLVKLDYWGQGTQVTVSS” the “polyreactivity (PSR sort gate)” value was “low polyreactivity”. With “QVQLVESAAGLVQAGGSLRLTCAASGLTFTTYAKGWYTQSPRKDRELVAAISRRGSRTYYADSVKGRFTISRDNAKNTVYLQMQSLKPDDTAVYYCNALTGSFKTDSFDYWGQGTQVTVSS” the “polyreactivity (PSR sort gate)” value was “high polyreactivity”.
